From patent publication US6492123

Assays:
hen egg lysozyme (hen) [1] = target: hen egg lysozyme (hen) (UniProt P00698); assay: phage ELISA, 50 µl phage supernatant, anti-M13 detection; background 0.1
hen egg lysozyme (hen) [2] = target: hen egg lysozyme (hen) (UniProt P00698); assay: BIAcore, HEL coated chip

Sequence of UniProt P00698 (P00698 19-147 limits assumed): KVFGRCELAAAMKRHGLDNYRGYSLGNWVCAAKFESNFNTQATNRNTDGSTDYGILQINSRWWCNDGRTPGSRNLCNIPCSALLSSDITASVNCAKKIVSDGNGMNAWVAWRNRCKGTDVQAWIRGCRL

Question: “NQ11/D1.3/0 bispecific diabody displayed on phage (pHEN1) (bispecific antibody)” was tested. Which absorbance signal (hen egg lysozyme (hen) [1]) did it give?
Answer: Its absorbance signal is 2.8.

Question: How did the koff (hen egg lysozyme (hen) [2]) turn out when chimaeric FabD1.3 was run?
Answer: The koff was 0.003 s⁻¹.

Question: With “construct VI bispecific NQ11/D1.3 diabody, 5-residue linkers (bispecific antibody)” as the substance, how does the koff (hen egg lysozyme (hen) [2]) read?
Answer: Its koff is 0.0022 s⁻¹.
